According to paper PMC6182392:

Biological target: Filgrastim (recombinant human granulocyte-colony stimulating factor from Escherichia coli) (human) (UniProt P09919)
Assay: SEC; HP-SEC, TSKgel G3000SWXL, 50 mM ammonium hydrogen carbonate pH 7.0, column 30°C; expired PDgrastim diluted to 0.25 mg/ml in 100 mM sodium acetate pH 5.0; dimer and oligomer assigned by retention relative to the monomer (Ph. Eur.)

relative peak area of dimer: 3.6%
relative peak area of oligomer: 0.1%
stoichiometry N: 2
Substance: Filgrastim (recombinant human granulocyte-colony stimulating factor from Escherichia coli) (from UniProt P09919-2 31-204) (ligand)
